According to patent publication US20200079823A1:

Biological target: cathepsin B

IC50 of cathepsin B inhibition (fluorescence-based kit assay): 9 µM
Substance: surugamide I (13) (peptide)
